Source: patent publication US12630600B2 (MEDIMMUNE LIMITED, priority 2022, dated 2026)
Starred links: 1 amine or outer side, 2 acyl side, 3 side chain; linkers in the order of their positions; H or OH if unused. Non-standard residues stand in square brackets, D forms with d. Groups on a side chain read outwards from the residue. No end group written: not given here. *: point of attachment. C20 diacid = O=C(O)CCCCCCCCCCCCCCCCCCC(=O)*; C18 diacid = O=C(O)CCCCCCCCCCCCCCCCC(=O)*; γGlu = O=C(O)[C@H](CCC(=O)[*:2])N[*:1]; αMeF = C[C@](N)(Cc1ccccc1)C(=O)O; AEEA = NCCOCCOCC(=O)O; Aib = CC(C)(N)C(=O)O

Legend:
human GLP-1 receptor = human GLP-1 receptor (human, UniProt P43220); test: cell-based or functional assay
human glucagon receptor = human glucagon receptor (human, UniProt P47871); test: cell-based or functional assay

B1: Peptide 466 (peptide)
peptide: H[Aib]QGTFTSDVSK[αMeF]LDTK([AEEA-AEEA-γGlu-C18 diacid])RAQDFVQWLLE[Aib]G-NH2
modifications: N-terminus assumed
SMILES: CC(C)C[C@H](NC(=O)[C@H](Cc1c[nH]c2ccccc12)NC(=O)[C@H](CCC(N)=O)NC(=O)[C@@H](NC(=O)[C@H](Cc1ccccc1)NC(=O)[C@H](CC(=O)O)NC(=O)[C@H](CCC(N)=O)NC(=O)[C@H](C)NC(=O)[C@H](CCCNC(=N)N)NC(=O)[C@H](CCCCNC(=O)COCCOCCNC(=O)COCCOCCNC(=O)CC[C@H](NC(=O)CCCCCCCCCCCCCCCCC(=O)O)C(=O)O)NC(=O)[C@@H](NC(=O)[C@H](CC(=O)O)NC(=O)[C@H](CC(C)C)NC(=O)[C@](C)(Cc1ccccc1)NC(=O)[C@H](CCCCN)NC(=O)[C@H](CO)NC(=O)[C@@H](NC(=O)[C@H](CC(=O)O)NC(=O)[C@H](CO)NC(=O)[C@@H](NC(=O)[C@H](Cc1ccccc1)NC(=O)[C@@H](NC(=O)CNC(=O)[C@H](CCC(N)=O)NC(=O)C(C)(C)NC(=O)[C@@H](N)Cc1c[nH]cn1)[C@@H](C)O)[C@@H](C)O)C(C)C)[C@@H](C)O)C(C)C)C(=O)N[C@@H](CC(C)C)C(=O)N[C@@H](CCC(=O)O)C(=O)NC(C)(C)C(=O)NCC(N)=O
cAMP production EC50 (human GLP-1 receptor): 0.0356 nM
cAMP production EC50 (human glucagon receptor): 0.131 nM

H[Aib]QGTFTSDVSK[αMeF]LDTK([AEEA-AEEA-γGlu-γGlu-C18 diacid])RAQDFVQWLLE[Aib]G-NH2 [Peptide 468]
cAMP production EC50 (human GLP-1 receptor): 0.0675 nM
cAMP production EC50 (human glucagon receptor): 0.292 nM

B2: Peptide 469 (peptide)
peptide: H[Aib]QGTFTSDVSK[αMeF]LDTK([AEEA-AEEA-γGlu-γGlu-C20 diacid])RAQDFVQWLLE[Aib]G-NH2
modifications: N-terminus assumed
SMILES: CC(C)C[C@H](NC(=O)[C@H](Cc1c[nH]c2ccccc12)NC(=O)[C@H](CCC(N)=O)NC(=O)[C@@H](NC(=O)[C@H](Cc1ccccc1)NC(=O)[C@H](CC(=O)O)NC(=O)[C@H](CCC(N)=O)NC(=O)[C@H](C)NC(=O)[C@H](CCCNC(=N)N)NC(=O)[C@H](CCCCNC(=O)COCCOCCNC(=O)COCCOCCNC(=O)CC[C@H](NC(=O)CC[C@H](NC(=O)CCCCCCCCCCCCCCCCCCC(=O)O)C(=O)O)C(=O)O)NC(=O)[C@@H](NC(=O)[C@H](CC(=O)O)NC(=O)[C@H](CC(C)C)NC(=O)[C@](C)(Cc1ccccc1)NC(=O)[C@H](CCCCN)NC(=O)[C@H](CO)NC(=O)[C@@H](NC(=O)[C@H](CC(=O)O)NC(=O)[C@H](CO)NC(=O)[C@@H](NC(=O)[C@H](Cc1ccccc1)NC(=O)[C@@H](NC(=O)CNC(=O)[C@H](CCC(N)=O)NC(=O)C(C)(C)NC(=O)[C@@H](N)Cc1c[nH]cn1)[C@@H](C)O)[C@@H](C)O)C(C)C)[C@@H](C)O)C(C)C)C(=O)N[C@@H](CC(C)C)C(=O)N[C@@H](CCC(=O)O)C(=O)NC(C)(C)C(=O)NCC(N)=O
cAMP production EC50 (human GLP-1 receptor): 0.255 nM
cAMP production EC50 (human glucagon receptor): 0.538 nM

B3: Peptide 474 (peptide)
peptide: H[Aib]QGTFTSDVSK[αMeF]LDTK([AEEA-AEEA-γGlu-C18 diacid])RARDFVQWLLA[Aib]G-NH2
modifications: N-terminus assumed
SMILES: CC(C)C[C@H](NC(=O)[C@H](CC(C)C)NC(=O)[C@H](Cc1c[nH]c2ccccc12)NC(=O)[C@H](CCC(N)=O)NC(=O)[C@@H](NC(=O)[C@H](Cc1ccccc1)NC(=O)[C@H](CC(=O)O)NC(=O)[C@H](CCCNC(=N)N)NC(=O)[C@H](C)NC(=O)[C@H](CCCNC(=N)N)NC(=O)[C@H](CCCCNC(=O)COCCOCCNC(=O)COCCOCCNC(=O)CC[C@H](NC(=O)CCCCCCCCCCCCCCCCC(=O)O)C(=O)O)NC(=O)[C@@H](NC(=O)[C@H](CC(=O)O)NC(=O)[C@H](CC(C)C)NC(=O)[C@](C)(Cc1ccccc1)NC(=O)[C@H](CCCCN)NC(=O)[C@H](CO)NC(=O)[C@@H](NC(=O)[C@H](CC(=O)O)NC(=O)[C@H](CO)NC(=O)[C@@H](NC(=O)[C@H](Cc1ccccc1)NC(=O)[C@@H](NC(=O)CNC(=O)[C@H](CCC(N)=O)NC(=O)C(C)(C)NC(=O)[C@@H](N)Cc1c[nH]cn1)[C@@H](C)O)[C@@H](C)O)C(C)C)[C@@H](C)O)C(C)C)C(=O)N[C@@H](C)C(=O)NC(C)(C)C(=O)NCC(N)=O
cAMP production EC50 (human GLP-1 receptor): 0.00804 nM
cAMP production EC50 (human glucagon receptor): 0.0569 nM

B4: Peptide 473 (peptide)
peptide: H[Aib]QGTFTSDVSK[αMeF]LDRK([AEEA-AEEA-γGlu-C18 diacid])RARDFVQWLL[Aib]E-NH2
modifications: N-terminus assumed
SMILES: CC(C)C[C@H](NC(=O)[C@H](Cc1c[nH]c2ccccc12)NC(=O)[C@H](CCC(N)=O)NC(=O)[C@@H](NC(=O)[C@H](Cc1ccccc1)NC(=O)[C@H](CC(=O)O)NC(=O)[C@H](CCCNC(=N)N)NC(=O)[C@H](C)NC(=O)[C@H](CCCNC(=N)N)NC(=O)[C@H](CCCCNC(=O)COCCOCCNC(=O)COCCOCCNC(=O)CC[C@H](NC(=O)CCCCCCCCCCCCCCCCC(=O)O)C(=O)O)NC(=O)[C@H](CCCNC(=N)N)NC(=O)[C@H](CC(=O)O)NC(=O)[C@H](CC(C)C)NC(=O)[C@](C)(Cc1ccccc1)NC(=O)[C@H](CCCCN)NC(=O)[C@H](CO)NC(=O)[C@@H](NC(=O)[C@H](CC(=O)O)NC(=O)[C@H](CO)NC(=O)[C@@H](NC(=O)[C@H](Cc1ccccc1)NC(=O)[C@@H](NC(=O)CNC(=O)[C@H](CCC(N)=O)NC(=O)C(C)(C)NC(=O)[C@@H](N)Cc1c[nH]cn1)[C@@H](C)O)[C@@H](C)O)C(C)C)C(C)C)C(=O)N[C@@H](CC(C)C)C(=O)NC(C)(C)C(=O)N[C@@H](CCC(=O)O)C(N)=O
cAMP production EC50 (human GLP-1 receptor): 0.0115 nM
cAMP production EC50 (human glucagon receptor): 0.0141 nM

B5: Peptide 475 (peptide)
peptide: H[Aib]QGTFTSDVSK[αMeF]LDTK([AEEA-AEEA-γGlu-C20 diacid])RARDFVQWLLA[Aib]G-NH2
modifications: N-terminus assumed
SMILES: CC(C)C[C@H](NC(=O)[C@H](CC(C)C)NC(=O)[C@H](Cc1c[nH]c2ccccc12)NC(=O)[C@H](CCC(N)=O)NC(=O)[C@@H](NC(=O)[C@H](Cc1ccccc1)NC(=O)[C@H](CC(=O)O)NC(=O)[C@H](CCCNC(=N)N)NC(=O)[C@H](C)NC(=O)[C@H](CCCNC(=N)N)NC(=O)[C@H](CCCCNC(=O)COCCOCCNC(=O)COCCOCCNC(=O)CC[C@H](NC(=O)CCCCCCCCCCCCCCCCCCC(=O)O)C(=O)O)NC(=O)[C@@H](NC(=O)[C@H](CC(=O)O)NC(=O)[C@H](CC(C)C)NC(=O)[C@](C)(Cc1ccccc1)NC(=O)[C@H](CCCCN)NC(=O)[C@H](CO)NC(=O)[C@@H](NC(=O)[C@H](CC(=O)O)NC(=O)[C@H](CO)NC(=O)[C@@H](NC(=O)[C@H](Cc1ccccc1)NC(=O)[C@@H](NC(=O)CNC(=O)[C@H](CCC(N)=O)NC(=O)C(C)(C)NC(=O)[C@@H](N)Cc1c[nH]cn1)[C@@H](C)O)[C@@H](C)O)C(C)C)[C@@H](C)O)C(C)C)C(=O)N[C@@H](C)C(=O)NC(C)(C)C(=O)NCC(N)=O
cAMP production EC50 (human GLP-1 receptor): 0.00675 nM
cAMP production EC50 (human glucagon receptor): 0.0615 nM

H[Aib]QGTFTSDVSK[αMeF]LDRK([AEEA-AEEA-γGlu-C20 diacid])RARDFVQWLL[Aib]E-NH2 [Peptide 471]
cAMP production EC50 (human GLP-1 receptor): 0.102 nM
cAMP production EC50 (human glucagon receptor): 0.0636 nM

B6: Peptide 470 (peptide)
peptide: H[Aib]QGTFTSDVSK[αMeF]LDKK([AEEA-AEEA-γGlu-C20 diacid])RARDFVQWLL[Aib]E-NH2
modifications: N-terminus assumed
SMILES: CC(C)C[C@H](NC(=O)[C@H](Cc1c[nH]c2ccccc12)NC(=O)[C@H](CCC(N)=O)NC(=O)[C@@H](NC(=O)[C@H](Cc1ccccc1)NC(=O)[C@H](CC(=O)O)NC(=O)[C@H](CCCNC(=N)N)NC(=O)[C@H](C)NC(=O)[C@H](CCCNC(=N)N)NC(=O)[C@H](CCCCNC(=O)COCCOCCNC(=O)COCCOCCNC(=O)CC[C@H](NC(=O)CCCCCCCCCCCCCCCCCCC(=O)O)C(=O)O)NC(=O)[C@H](CCCCN)NC(=O)[C@H](CC(=O)O)NC(=O)[C@H](CC(C)C)NC(=O)[C@](C)(Cc1ccccc1)NC(=O)[C@H](CCCCN)NC(=O)[C@H](CO)NC(=O)[C@@H](NC(=O)[C@H](CC(=O)O)NC(=O)[C@H](CO)NC(=O)[C@@H](NC(=O)[C@H](Cc1ccccc1)NC(=O)[C@@H](NC(=O)CNC(=O)[C@H](CCC(N)=O)NC(=O)C(C)(C)NC(=O)[C@@H](N)Cc1c[nH]cn1)[C@@H](C)O)[C@@H](C)O)C(C)C)C(C)C)C(=O)N[C@@H](CC(C)C)C(=O)NC(C)(C)C(=O)N[C@@H](CCC(=O)O)C(N)=O
cAMP production EC50 (human GLP-1 receptor): 0.0559 nM
cAMP production EC50 (human glucagon receptor): 0.0303 nM

B7: Peptide 472 (peptide)
peptide: H[Aib]QGTFTSDVSK[αMeF]LDKK([AEEA-AEEA-γGlu-C18 diacid])RARDFVQWLL[Aib]E-NH2
modifications: N-terminus assumed
SMILES: CC(C)C[C@H](NC(=O)[C@H](Cc1c[nH]c2ccccc12)NC(=O)[C@H](CCC(N)=O)NC(=O)[C@@H](NC(=O)[C@H](Cc1ccccc1)NC(=O)[C@H](CC(=O)O)NC(=O)[C@H](CCCNC(=N)N)NC(=O)[C@H](C)NC(=O)[C@H](CCCNC(=N)N)NC(=O)[C@H](CCCCNC(=O)COCCOCCNC(=O)COCCOCCNC(=O)CC[C@H](NC(=O)CCCCCCCCCCCCCCCCC(=O)O)C(=O)O)NC(=O)[C@H](CCCCN)NC(=O)[C@H](CC(=O)O)NC(=O)[C@H](CC(C)C)NC(=O)[C@](C)(Cc1ccccc1)NC(=O)[C@H](CCCCN)NC(=O)[C@H](CO)NC(=O)[C@@H](NC(=O)[C@H](CC(=O)O)NC(=O)[C@H](CO)NC(=O)[C@@H](NC(=O)[C@H](Cc1ccccc1)NC(=O)[C@@H](NC(=O)CNC(=O)[C@H](CCC(N)=O)NC(=O)C(C)(C)NC(=O)[C@@H](N)Cc1c[nH]cn1)[C@@H](C)O)[C@@H](C)O)C(C)C)C(C)C)C(=O)N[C@@H](CC(C)C)C(=O)NC(C)(C)C(=O)N[C@@H](CCC(=O)O)C(N)=O
cAMP production EC50 (human GLP-1 receptor): 0.00763 nM
cAMP production EC50 (human glucagon receptor): 0.0111 nM
